Data from patent US20170002075A1 (AbbVie / Abbott, published 2017).
Values belong to the binder of their own block, whether it stands above or below them.

Tests used:
[1] = molecular target: T1, E. coli RAGE Construct #6, 6His-(Thr)-[RAGE (130-336)] (human, UniProt Q15109 130-336); experiment: ELISA: RAGE 130-336 (E. coli, D#1478) coated, mAb titrated, anti-mouse HRP conjugate, TMB
T1 construct: Expressed in E. coli with an N-terminal 6His-(Thr) tag, which is part of the entry; also called RAGE protein #6
Experimental: (§1) Antigens (purified construct #1-7 proteins) were diluted into Coating Buffer [100 mM NaHCO₃, pH 8.2] to 1 μg/ml, and 100 μl of the resulting solution was then aliquoted into a 96-well Nunc Immuno Plate (Maxi-Sorb Surface, flat bottom, catalog #439454). The plate was sealed with sealing film and incubated at 4° C. overnight. The next day, the plate wells were each washed 3 times with 150 μL PBST buffer [Sigma PBS+0.05% Tween 20]. Then 300 ul of blocking solution (3% NFDM in PBST) was added to each well. The plate was incubated for 2 hours at room temperature and shaking at 100 rpm. After the incubation step, each well was again washed three times with 150 uL PBST. […] The plate was then sealed with sealing film and incubated for 2 hours at room temperature and shaking at 100 rpm. Next the antibody solution was drained out of the wells, and each well then washed three times with 200 ul PBST. To each well then 200 ul of a 1:5000 dilution (in PBST/1% NFDM) of conjugated secondary antibody [Donkey anti-mouse HRPO conjugate, Jackson Immuno Research, Catalog #715-035-150] was added. The plate was covered and allowed to incubate for 1 hour at room temperature while shaking at 100 rpm. Following this incubation, the solution was removed from the wells and each well was washed three times with 200 ul PBST. To each well 100 μL of HRPO substrate [3,3′,5′,5′-Tetramethylbenzidine Liquid Substrate (TMB), Supersensitive for ELISA, Sigma Catalog #T4444] solution was added and the plate incubated at room temperature for 10 minutes. Finally, 50 μL of 2M H₂SO₄ was added to each well to stop the reaction and the A₅₄₀ₙₘ of each well was measured using a microtiter plate reader.

[2] = molecular target: T2, E. coli RAGE Construct #4, 6His-(Thr)-[RAGE (24-336)] (human, UniProt Q15109 24-336); experiment: ELISA: RAGE 24-336 (E. coli, D#1476) coated, mAb titrated, anti-mouse HRP conjugate, TMB
T2 construct: Expressed in E. coli with an N-terminal 6His-(Thr) tag, which is part of the entry; also called RAGE protein #4
Experimental: as §1

[3] = molecular target: T3, E. coli RAGE Construct #7, 6His-(Thr)-[RAGE (235-336)] (human); experiment: ELISA: RAGE 235-336 (E. coli, D#1479) coated, mAb titrated, anti-mouse HRP conjugate, TMB
T3 construct: Expressed in E. coli with an N-terminal 6His-(Thr) tag, which is part of the entry; also called RAGE protein #7
T3 chain: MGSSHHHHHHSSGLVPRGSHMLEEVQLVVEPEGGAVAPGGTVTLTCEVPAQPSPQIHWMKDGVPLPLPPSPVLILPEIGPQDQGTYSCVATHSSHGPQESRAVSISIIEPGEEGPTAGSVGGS
Experimental: as §1

[4] = molecular target: T4, E. coli RAGE Construct #2, 6His-(Thr)-[RAGE (24-129)] (human); experiment: ELISA: RAGE 24-129 (E. coli, D#1474) coated, mAb titrated, anti-mouse HRP conjugate, TMB
T4 construct: Expressed in E. coli with an N-terminal 6His-(Thr) tag, which is part of the entry; also called RAGE protein #2
T4 chain: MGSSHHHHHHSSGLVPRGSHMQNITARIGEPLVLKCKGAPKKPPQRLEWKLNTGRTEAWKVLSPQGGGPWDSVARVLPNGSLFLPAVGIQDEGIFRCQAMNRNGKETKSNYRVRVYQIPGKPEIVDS
Experimental: as §1

[5] = molecular target: T5, E. coli RAGE Construct #3, 6His-(Thr)-[RAGE (24-234)] (human, UniProt Q15109 24-234); experiment: ELISA: RAGE 24-234 (E. coli, D#1475) coated, mAb titrated, anti-mouse HRP conjugate, TMB
T5 construct: Expressed in E. coli with an N-terminal 6His-(Thr) tag, which is part of the entry; also called RAGE protein #3
Experimental: as §1

[6] = molecular target: T6, E. coli RAGE Construct #5, 6His-(Thr)-[RAGE (130-234)] (human); experiment: ELISA: RAGE 130-234 (E. coli, D#1477) coated, mAb titrated, anti-mouse HRP conjugate, TMB
T6 construct: Expressed in E. coli with an N-terminal 6His-(Thr) tag, which is part of the entry; also called RAGE protein #5
T6 chain: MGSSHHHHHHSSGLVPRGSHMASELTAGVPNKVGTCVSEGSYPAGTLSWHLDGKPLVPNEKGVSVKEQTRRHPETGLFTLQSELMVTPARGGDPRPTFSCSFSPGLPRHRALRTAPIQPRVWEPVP
Experimental: as §1

[7] = molecular target: T7, hRAGE (1-331) / human sRAGE 1-331, V#400 (human, UniProt Q15109 23-331); experiment: Biacore 2000 SPR, mAb captured via anti-mouse Fc, RAGE injected 20-0.31 nM, HBS-EP+ buffer, 1:1 fit
T7 construct: also called sRAGE [RAGE (1-331)]; RAGE (antigen of the Biacore runs)
Experimental: The assay format for mAb affinity analysis was Fc-based capture via immobilized anti-Fc antibodies. A standard amine coupling protocol was employed to immobilize Fc-specific IgG via primary amines to the carboxy-methyl (CM) dextran surface of CM5 sensorchips (Biacore). […] Briefly, the CM-dextran surfaces were activated by freshly prepared 1:1 50 mM N-hydroxysuccinimide (NHS):200 mM 3-(N,N-dimethylamino) propyl-N-ethylcarbodiimide (EDC). Then the anti-Fc IgG capture reagent (20 ug/ml in 10 mM sodium acetate, pH4.5) was applied to the surface followed by deactivation of the surface and blocking of the residual reactive sites with 1M ethanolamine (pH 8.5).
Each experimental cycle consisted of the following steps: 1) anti-RAGE mAbs were captured in flowcells 2, 3 or 4 to a level of 50-200 RU (depending on the antigen). All measurements were referenced against flowcell 1 which had no captured anti-RAGE mAb. […] 3) the anti-Fc capture surface was regenerated with low pH glycine.
Briefly, the data were double referenced by first, subtracting the signal from the reference cell and second, by subtracting the signal from buffer-only injections.

T1 sequence (Q15109 other isoform, or with tags, fused parts or gaps limits assumed): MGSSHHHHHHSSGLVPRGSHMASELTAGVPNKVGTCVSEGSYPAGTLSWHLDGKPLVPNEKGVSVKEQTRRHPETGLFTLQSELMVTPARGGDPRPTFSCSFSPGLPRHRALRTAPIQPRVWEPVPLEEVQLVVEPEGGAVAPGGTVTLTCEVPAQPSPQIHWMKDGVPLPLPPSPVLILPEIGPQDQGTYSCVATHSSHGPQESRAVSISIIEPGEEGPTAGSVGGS
T7 sequence (Q15109 23-331): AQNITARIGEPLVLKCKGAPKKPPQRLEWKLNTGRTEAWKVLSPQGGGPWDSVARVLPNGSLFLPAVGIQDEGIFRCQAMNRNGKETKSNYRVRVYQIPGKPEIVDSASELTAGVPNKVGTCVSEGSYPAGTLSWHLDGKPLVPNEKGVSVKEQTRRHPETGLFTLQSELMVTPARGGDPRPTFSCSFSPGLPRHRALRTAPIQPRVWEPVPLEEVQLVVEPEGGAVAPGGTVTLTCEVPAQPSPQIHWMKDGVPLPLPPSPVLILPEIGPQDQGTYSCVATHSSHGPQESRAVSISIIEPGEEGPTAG

EC50 (read off the curve) [1]: ~0.6 nM | EC50 (read off the curve) [2]: ~0.2 nM | EC50 (read off the curve) [3]: ~0.04 nM | binding result [4]: no binding | binding result [5]: no binding | binding result [6]: no binding | Kd [7]: 0.29 nM
B1: anti-human RAGE monoclonal antibody 11E6 (murine, hybridoma-derived) (antibody, V domains shown)
VH: QIQLVQSGPELKKPGETVKISCKASGYTFTNFGMNWVKQAPGKGLKWMGYINTNTGESIYSEEFKGRFAFSLETSASTAYLQINNLKNEDTATYFCARSRMVTAYGMDYWGQGTSVTVSS
VL: DIVMTQSQKFMSTSVGDRVSITCKASQNVGTAVAWYQQRPGQSPKLLIFSASNRYTGVPDRFTGSGSGTDFTLTLSNMQPEDLADYFCQQYSSYPLTFGVGTKLELKR
notes: also called mAb11E6; ML37-11E6

EC50 (read off the curve) [1]: ~0.5 nM | EC50 (read off the curve) [2]: ~0.2 nM | EC50 (read off the curve) [3]: ~0.03 nM | binding result [4]: no binding | binding result [5]: no binding | binding result [6]: no binding | Kd [7]: 2.2 nM
B2: anti-human RAGE monoclonal antibody 4E5 (murine, hybridoma-derived) (antibody, V domains shown)
VH: QVQLQQSGAELVRPGTSVKVSCKASGYAFNNYLIEWIKQRPGQGLEWIGVINPGSGGTNHNEKFKVKATLTADKSSSTAYIQLSSLTSDDSAVYFCARSAGTARARFAYWGQGTLVTVSA
VL: DIQMTQSPSSLSASLGERVSLTCRASQDIGSSLNWLQQEPDGTIKRLIYATSSLDSGVPKRFSGSRSGSDYSLTISSLESEDFVDYYCLQYASFPFTFGSGTKLEIKR
notes: also called mAb4E5; ML37-4E5

binding result [1]: no binding | binding result [2]: no binding | binding result [3]: no binding | binding result [4]: no binding | binding result [5]: no binding | binding result [6]: no binding | Kd [7]: 0.11 nM
B3: anti-human RAGE monoclonal antibody 7F9 (murine, hybridoma-derived) (antibody, V domains shown)
VH: EEKLEESGGGLVQLGGSMKISCVASGFTLSNYWMDWVRQSPEKGLEWIAEIRLKSNYYSTHYAESVKGRFSISRDDSKGSVSLQMDNLTAEDTGIYFCARNAYWYFDVWGTGTTVTVSS
VL: DIVMTQSHKFMSTSVGDRVSATCKASQDVGTSVAWYQQKLGQSPKLLIYWTSTRHTGVPDRFTGSGSGTDFTLTISNVQSEDLADYFCQQYNNYPLTFGDGTKLELKR
notes: also called mAb7F9; MAb 7F9
